To fix the notation:
B2: GST-CIP2A(1-330) (domain or fragment)
chain: not shown

In assay [1] the target is CIP2A(1-560)-V5 (human, UniProt Q8TCG1 1-560). Put plainly: pull-down.
In assay [2] the target is B2. Put plainly: pull-down.

B1: CIP2A(331-560) (domain or fragment)
chain: not shown
With B1, the binding result in assay [1] is “binds”.
Same read-out and setting: next, B2: “binds”.

B3: CIP2A(1-330), prey of the GST pull-down (domain or fragment)
chain: not shown
For the molecule B3, in assay [2], the binding result is “binds”.

(Values after doi:10.1101/2025.10.13.682046 (bioRxiv, 2025).)
